According to patent US6573081:

Key:
[1] = target: Porcine circovirus (PCV) grown in PS cell culture (porcine circovirus); assay: ELISA, PCV supernatant adsorbed to the plate at virus dilution 1:6400
[2] = target: Porcine circovirus (PCV) grown in PS cell culture (porcine circovirus); assay: ELISA, PCV supernatant adsorbed to the plate at virus dilution 1:1600
[3] = target: Porcine circovirus (PCV) grown in PS cell culture (porcine circovirus); assay: ELISA, PCV supernatant adsorbed to the plate at virus dilution 1:3200
[4] = target: Porcine circovirus (PCV) grown in PS cell culture (porcine circovirus); assay: ELISA, PCV supernatant adsorbed to the plate at virus dilution 1:200
[5] = target: Porcine circovirus (PCV) grown in PS cell culture (porcine circovirus); assay: ELISA, PCV supernatant adsorbed to the plate at virus dilution 1:400
[6] = target: Porcine circovirus (PCV) grown in PS cell culture (porcine circovirus); assay: ELISA, PCV supernatant adsorbed to the plate at virus dilution 1:800

## Human immunoglobulin concentrate (Beriglobin P)
[1]
  extinction: 0.381 extinction
[2]
  extinction: 0.726 extinction
[3]
  extinction: 0.268 extinction
[4]
  extinction: > 2 extinction
[5]
  extinction: 1.98 extinction
[6]
  extinction: 1.17 extinction
